Measurements from patent US20240400703A1 (Genmab, published 2024).

What was measured:
[1] = biological target: T1, cynomolgus monkey OX40 expressed on HEK293F cells (cynomolgus monkey (Macaca fascicularis), UniProt P43489 29-277 (human entry)); experiment: flow cytometry, OX40-transfected HEK293F cells, gMFI (PE)
T1 construct: full-length entry
T1 chain: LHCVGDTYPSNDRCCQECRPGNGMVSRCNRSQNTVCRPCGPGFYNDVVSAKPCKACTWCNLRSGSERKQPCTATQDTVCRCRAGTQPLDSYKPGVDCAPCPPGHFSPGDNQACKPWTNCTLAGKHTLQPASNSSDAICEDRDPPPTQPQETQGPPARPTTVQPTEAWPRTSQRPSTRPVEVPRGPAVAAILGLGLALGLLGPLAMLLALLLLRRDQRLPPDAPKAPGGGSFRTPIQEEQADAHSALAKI
Description: (§1) Transfected cells were seeded in 96-well plates (30,000 cells/well; ThermoFisher, cat. no. 163320) for sequential incubations, with washing steps in between using fluorescence-activated cell sorting (FACS) buffer 1 (phosphate buffered saline [PBS; Lonza, cat. no. BE17-517Q] supplemented with 0.1% bovine serum albumin [BSA; Roche, cat. no. 10735086001] and 0.02% sodium azide [NaN₃; Bio-World, cat. no. 41920044-3]) supplemented with 2 mM ethylenediaminetetraacetic acid (EDTA; Sigma-Aldrich, cat. no. 03690). […] Cells were then washed using EDTA-supplemented FACS buffer 1, resuspended in a 30 μL solution of viability marker ToPro-3 (Invitrogen, cat. no. T3605, diluted 1:10,000) in EDTA-supplemented FACS buffer 1, and subsequently analyzed on an iQue® 3 flow cytometer (Satorius). Data were analyzed using FlowJo software and were visualized using GraphPad Prism.

[2] = biological target: T2, human OX40 expressed on cells (human, UniProt P43489 29-277); experiment: as above
T2 construct: also called CD134; TNFRSF4
T2 sequence: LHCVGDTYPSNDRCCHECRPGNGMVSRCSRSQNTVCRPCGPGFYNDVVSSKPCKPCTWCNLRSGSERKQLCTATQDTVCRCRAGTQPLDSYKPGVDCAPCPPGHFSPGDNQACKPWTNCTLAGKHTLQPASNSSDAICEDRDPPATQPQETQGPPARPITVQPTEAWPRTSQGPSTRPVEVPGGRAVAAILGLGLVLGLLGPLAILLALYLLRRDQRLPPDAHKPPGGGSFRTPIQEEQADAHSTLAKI
Description: as §1

[3] = biological target: T3, human OX40 with mouse CRD1 (human with mouse CRD1, UniProt P43489 29-277); experiment: flow cytometry, transfected ExpiCHO-S cells, gMFI (PE)
T3 construct: on ExpiCHO-S cells; also called OX40-CRD1mm; Shuffle 1
T3 chain: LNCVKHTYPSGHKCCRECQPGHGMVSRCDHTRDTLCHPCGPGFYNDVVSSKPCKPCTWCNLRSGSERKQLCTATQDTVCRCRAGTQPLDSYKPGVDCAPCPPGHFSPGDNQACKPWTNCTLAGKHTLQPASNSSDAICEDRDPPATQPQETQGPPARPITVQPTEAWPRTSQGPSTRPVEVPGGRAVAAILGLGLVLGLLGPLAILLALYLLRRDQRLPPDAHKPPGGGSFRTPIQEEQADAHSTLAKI

[4] = biological target: T4, mouse OX40 expressed on ExpiCHO-S cells (mouse, UniProt P47741 20-272); experiment: as above
T4 construct: full-length entry; also called OX40mm; wild-type mouse OX40
T4 sequence: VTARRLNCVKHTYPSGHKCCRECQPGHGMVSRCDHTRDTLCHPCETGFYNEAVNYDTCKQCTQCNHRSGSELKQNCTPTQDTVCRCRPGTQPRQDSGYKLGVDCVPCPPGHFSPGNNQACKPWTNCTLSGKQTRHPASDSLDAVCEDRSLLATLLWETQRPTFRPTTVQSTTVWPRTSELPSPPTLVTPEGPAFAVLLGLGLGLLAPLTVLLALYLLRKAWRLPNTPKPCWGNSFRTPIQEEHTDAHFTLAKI

[5] = biological target: T5, human OX40 with mouse CRD3 (human with mouse CRD3, UniProt P43489 29-277); experiment: as above
T5 construct: on ExpiCHO-S cells; also called OX40-CRD3mm; Shuffle 3
T5 chain: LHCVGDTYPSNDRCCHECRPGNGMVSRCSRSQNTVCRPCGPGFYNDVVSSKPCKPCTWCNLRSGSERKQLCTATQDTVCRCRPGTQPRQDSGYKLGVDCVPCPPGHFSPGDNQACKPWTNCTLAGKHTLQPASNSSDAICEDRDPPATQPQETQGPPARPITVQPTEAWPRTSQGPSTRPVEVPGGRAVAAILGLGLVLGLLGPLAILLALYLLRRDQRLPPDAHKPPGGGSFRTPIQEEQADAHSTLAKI

[6] = biological target: T6, human OX40 with mouse CRD4 (human with mouse CRD4, UniProt P43489 29-277); experiment: as above
T6 construct: on ExpiCHO-S cells; also called OX40-CRD4mm; Shuffle 4
T6 chain: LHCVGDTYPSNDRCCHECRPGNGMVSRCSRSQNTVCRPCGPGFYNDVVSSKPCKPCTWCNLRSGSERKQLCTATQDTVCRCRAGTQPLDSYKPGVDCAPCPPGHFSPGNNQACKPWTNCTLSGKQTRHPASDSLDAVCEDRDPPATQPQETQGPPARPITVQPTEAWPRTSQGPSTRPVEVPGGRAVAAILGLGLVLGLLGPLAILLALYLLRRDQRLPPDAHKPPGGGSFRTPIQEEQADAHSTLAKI
Description: The four shuffle constructs, as well as wild-type human and mouse OX40 were transiently expressed on ExpiCHO-S cells using the ExpiFectamine™ CHO Transfection Kit (ThermoFisher, cat. no. A29131), according to the manufacturer's protocol. […] Next, cells were washed twice in FACS buffer 1, were resuspended in a 30 μL solution of viability marker ToPro-3 (Invitrogen, cat. no. T3605, diluted 1:10,000) in FACS buffer 1 supplemented with 2 mM EDTA, and were analyzed on an iQue Screener Plus (Intellicyt Corporation, USA). Data were analyzed using FlowJo software and visualized using GraphPad Prism.

[7] = biological target: T7, human OX40 with mouse CRD2 (human with mouse CRD2, UniProt P43489 29-277); experiment: as above
T7 construct: on ExpiCHO-S cells; also called OX40-CRD2mm; Shuffle 2
T7 chain: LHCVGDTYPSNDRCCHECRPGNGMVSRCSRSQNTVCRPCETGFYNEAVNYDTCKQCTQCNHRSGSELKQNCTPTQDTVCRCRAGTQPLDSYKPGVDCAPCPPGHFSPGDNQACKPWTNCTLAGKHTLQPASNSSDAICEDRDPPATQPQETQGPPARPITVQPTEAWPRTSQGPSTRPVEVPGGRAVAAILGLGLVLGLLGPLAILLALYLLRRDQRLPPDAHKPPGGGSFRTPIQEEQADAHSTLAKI

[8] = biological target: T8, human FcγRIa expressed on cells (human, UniProt P12314 16-374); experiment: flow cytometry, FcγRIa-expressing human monocyte-derived M2c-like macrophages, 15 min
T8 construct: whole, on cells; also called FcγR1a; CD64

[9] = biological target: T9, His-tagged human recombinant FcγRIIa 167-Arg (Sino Biological, cat. no. 10374-H27H) (human, UniProt P12318 34-218); experiment: SPR, His-tagged FcγR captured on anti-His chip, antibody injected
T9 construct: also called FcγRIIa[R]
T9 sequence (looked up): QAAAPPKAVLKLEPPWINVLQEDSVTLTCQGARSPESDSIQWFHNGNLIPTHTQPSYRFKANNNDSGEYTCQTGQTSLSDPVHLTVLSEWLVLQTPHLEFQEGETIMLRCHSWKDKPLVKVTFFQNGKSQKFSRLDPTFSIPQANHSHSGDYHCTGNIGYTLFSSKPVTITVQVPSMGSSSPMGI
Description: (§2) Biacore Series S Sensor Chips CM5 (Cytiva, cat. no. 29104988) were covalently coated with anti-His antibody using amine-coupling and His capture kits (Cytiva, cat. no. BR100050 and cat. no. 29234602) according to the manufacturer's instructions. […] After three start-up cycles of HBS-EP+ buffer, antibody samples were injected for 12 cycles per sample to generate binding curves using antibody concentration ranges of 0 to 3,000 nM for FcγRIa and 0 to 10,000 nM for the other FcγRs.
(§3) Dissociation from the anti-His-coated surface was performed by regeneration of the surface using 10 mM Glycine-HCl pH 1.5 (Cytiva, cat. no. BR100354).

[10] = biological target: His-tagged human recombinant FcγRIa (Sino Biological, cat. no. 10256-H08S-B) (human, UniProt P12314 16-288); experiment: as above
Description: as §2, §3

[11] = biological target: T10, His-tagged human recombinant FcγRIIa 167-His (Sino Biological, cat. no. 10374-H08H1) (human, UniProt P12318 34-218); experiment: as above
T10 construct: also called FcγRIIa[H]
T10 sequence (looked up): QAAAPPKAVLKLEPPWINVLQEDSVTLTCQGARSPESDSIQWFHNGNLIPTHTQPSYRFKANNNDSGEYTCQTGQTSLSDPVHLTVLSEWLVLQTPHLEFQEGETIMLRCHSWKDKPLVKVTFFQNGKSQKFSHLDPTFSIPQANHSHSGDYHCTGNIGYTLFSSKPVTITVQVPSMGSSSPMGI
Description: as §2, §3

[12] = biological target: T11, His-tagged human recombinant FcγRIIIa 176-Val (Sino Biological, cat. no. 10389-H27H1-B) (human, UniProt P08637 17-208); experiment: as above
T11 construct: also called FcγRIIIa[V]
Description: as §2, §3

[13] = biological target: T12, His-tagged human recombinant FcγRIIIa 176-Phe (Sino Biological, cat. no. 10389-H27H) (human, UniProt P08637 17-208); experiment: as above
T12 construct: also called FcγRIIIa[F]
Description: as §2, §3

[14] = biological target: T13, His-tagged human recombinant FcγRIIb (Sino Biological, cat. no. 10259-H27H-B) (human, UniProt P31994 43-217); experiment: as above
T13 construct: also called FcγRII2b [sic]
T13 sequence (looked up): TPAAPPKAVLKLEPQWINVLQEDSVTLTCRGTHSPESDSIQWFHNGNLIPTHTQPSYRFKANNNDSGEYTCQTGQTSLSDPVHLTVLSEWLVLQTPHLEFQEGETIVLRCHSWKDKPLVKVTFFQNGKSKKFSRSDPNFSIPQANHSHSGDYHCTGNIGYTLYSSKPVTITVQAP
Description: as §2, §3

[15] = biological target: T2, human OX40 expressed on cells; experiment: flow cytometry, human T cells activated 2 days with anti-CD3/CD28 beads, 2 µg/mL sOX40L, anti-mouse Fc detection
Description: Stimulated PBMCs were pelleted, resuspended in FACS buffer 2 (DPBS with 2% heat-inactivated FBS [Sigma-Aldrich, cat. no. F7524] and 2 mM EDTA [Sigma-Aldrich, cat. no. 03690]), and seeded (100,000 cells/well) in round-bottom 96-well plates (VWR International GmbH, cat. no. 734-197). […] Next, cells were washed twice in FACS buffer, and incubated with 30 μL of the antibody panel described in Table 11 diluted in FACS buffer 2 containing 1:1,500 Fixable Viability Stain eFluor 780 at 4° C. for 20 min, protected from light. The cells were subsequently washed twice with 120-150 μL FACS buffer 2 and measured on a BD FACSCelesta flow cytometer using a BD High Throughput sampler and subsequent analysis was done using FlowJo software.

T8 sequence (P12314 16-374): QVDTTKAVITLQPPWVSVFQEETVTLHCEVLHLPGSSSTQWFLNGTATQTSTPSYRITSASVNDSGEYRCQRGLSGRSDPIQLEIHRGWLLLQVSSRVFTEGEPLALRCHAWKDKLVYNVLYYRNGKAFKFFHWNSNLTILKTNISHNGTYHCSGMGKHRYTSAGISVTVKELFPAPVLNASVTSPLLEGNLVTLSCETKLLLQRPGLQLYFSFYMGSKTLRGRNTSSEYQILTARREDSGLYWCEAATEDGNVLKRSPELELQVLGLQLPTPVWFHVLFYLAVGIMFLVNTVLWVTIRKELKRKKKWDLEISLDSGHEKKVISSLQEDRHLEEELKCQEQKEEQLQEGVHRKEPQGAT
T11 sequence (P08637 17-208 F176V limits assumed): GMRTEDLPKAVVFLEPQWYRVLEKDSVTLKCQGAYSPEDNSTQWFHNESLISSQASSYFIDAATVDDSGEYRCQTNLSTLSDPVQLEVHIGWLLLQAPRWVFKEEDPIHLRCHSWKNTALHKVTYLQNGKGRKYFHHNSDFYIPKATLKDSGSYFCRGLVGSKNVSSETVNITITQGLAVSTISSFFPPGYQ
His-tagged human recombinant FcγRIa (Sino Biological, cat. no. 10256-H08S-B), sequence (P12314 16-288 limits assumed, stated change not applied): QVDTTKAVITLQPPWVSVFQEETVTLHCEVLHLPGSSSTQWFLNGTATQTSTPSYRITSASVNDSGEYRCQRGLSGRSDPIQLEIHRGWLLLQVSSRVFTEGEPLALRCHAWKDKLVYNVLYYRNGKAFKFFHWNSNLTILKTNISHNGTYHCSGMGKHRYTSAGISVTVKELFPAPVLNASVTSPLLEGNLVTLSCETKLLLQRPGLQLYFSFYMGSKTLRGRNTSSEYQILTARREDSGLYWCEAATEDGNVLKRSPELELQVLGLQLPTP
T12 sequence (P08637 17-208 limits assumed): as the sequence (P08637 17-208 F176V limits assumed) above, with V160F counted along it

B1: IgG1-b12-RR (antibody)
heavy: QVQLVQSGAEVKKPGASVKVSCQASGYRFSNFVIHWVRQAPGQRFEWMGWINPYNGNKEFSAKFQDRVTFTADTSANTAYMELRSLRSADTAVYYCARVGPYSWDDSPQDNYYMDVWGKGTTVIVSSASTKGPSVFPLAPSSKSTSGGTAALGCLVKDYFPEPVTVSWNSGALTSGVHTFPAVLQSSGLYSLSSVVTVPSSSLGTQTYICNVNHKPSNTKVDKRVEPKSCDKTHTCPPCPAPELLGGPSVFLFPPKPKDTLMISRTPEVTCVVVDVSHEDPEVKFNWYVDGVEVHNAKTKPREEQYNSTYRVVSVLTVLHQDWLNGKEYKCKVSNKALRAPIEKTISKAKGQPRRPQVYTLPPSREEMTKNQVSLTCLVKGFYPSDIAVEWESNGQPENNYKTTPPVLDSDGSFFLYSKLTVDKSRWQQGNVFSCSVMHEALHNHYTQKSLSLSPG
VL: EIVLTQSPGTLSLSPGERATFSCRSSHSIRSRRVAWYQHKPGQAPRLVIHGVSNRASGISDRFSGSGSGTDFTLTITRVEPEDFALYYCQVYGASSYTFGQGTKLERK
notes: also called IgG1-b12-P329R-E345R
Q: Does B1 bind [1]?
A: no binding (tested: 50 µg/mL)

Q: Does B1 bind [2]?
A: no binding (tested: 50 µg/mL)

Q: Does B1 bind [3]?
A: no binding (tested: 50 µg/mL)

Q: Does B1 bind [4]?
A: no binding (tested: 50 µg/mL)

Q: Does B1 bind [5]?
A: no binding (tested: 50 µg/mL)

Q: Does B1 bind [6]?
A: no binding (tested: 50 µg/mL)

Q: Does B1 bind [7]?
A: no binding (tested: 50 µg/mL)

Q: Does B1 bind [8]?
A: no binding (tested: 10 µg/mL)

B2: IgG1-CD134-003-HC6LC2-E345R (antibody)
heavy: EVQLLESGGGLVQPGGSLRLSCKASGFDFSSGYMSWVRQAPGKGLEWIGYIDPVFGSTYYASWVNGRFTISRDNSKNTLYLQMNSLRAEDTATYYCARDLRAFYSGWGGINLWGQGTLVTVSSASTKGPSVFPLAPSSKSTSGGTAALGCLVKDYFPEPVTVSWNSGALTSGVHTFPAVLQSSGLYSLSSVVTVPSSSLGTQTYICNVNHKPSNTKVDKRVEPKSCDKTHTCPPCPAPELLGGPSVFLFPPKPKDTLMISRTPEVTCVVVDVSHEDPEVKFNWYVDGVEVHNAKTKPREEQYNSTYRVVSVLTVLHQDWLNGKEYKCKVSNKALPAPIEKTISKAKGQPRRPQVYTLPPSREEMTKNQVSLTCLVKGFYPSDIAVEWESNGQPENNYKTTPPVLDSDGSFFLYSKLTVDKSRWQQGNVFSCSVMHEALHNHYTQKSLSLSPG
light: AAVLTQSPSSLSASVGDRVTITCQSSQIVVNNNFLSWYQQKPGKAPKLLIYDASNLASGVPDRFSGSGSGTDFTFTISSLQPEDIATYYCLGGYDDDAENAFGGGTKVEIKRTVAAPSVFIFPPSDEQLKSGTASVVCLLNNFYPREAKVQWKVDNALQSGNSQESVTEQDSKDSTYSLSSTLTLSKADYEKHKVYACEVTHQGLSSPVTKSFNRGEC
notes: also called variant of IgG1-CD134-003-HC6LC2-RR without Fc-inertness mutation; copies: 2 + 2
Q: Which results are given for B2?
A: binding result [9]: binds; binding result [10]: binds; binding result [11]: binds; binding result [12]: binds; binding result [13]: binds; binding result [14]: binds

B3: murine Fc-tagged human sOX40L (Sino Biological, cat. no. 13127-H04H) (Fc fusion, UniProt P23510 51-183, looked up)
chain: QVSHRYPRIQSIKVQFTEYKKEKGFILTSQKEDEIMKVQNNSVIINCDGFYLISLKGYFSQEVNISLHYQKDEEPLFQLKKVRSVNSLMVASLTYKDKVYLNVTTDNTSLDDFHVNGGELILIHQNPGEFCVL
notes: bought protein; also called soluble OX40L; not shown: murine Fc tag
Q: Does B3 bind [15]?
A: binds
